PMC4699771

System: T1, YhaJ (Escherichia coli EHEC O157:H7? EDL933 (amplified from TUV93-0 genomic DNA)), ORF:62819c23
T1 sequence: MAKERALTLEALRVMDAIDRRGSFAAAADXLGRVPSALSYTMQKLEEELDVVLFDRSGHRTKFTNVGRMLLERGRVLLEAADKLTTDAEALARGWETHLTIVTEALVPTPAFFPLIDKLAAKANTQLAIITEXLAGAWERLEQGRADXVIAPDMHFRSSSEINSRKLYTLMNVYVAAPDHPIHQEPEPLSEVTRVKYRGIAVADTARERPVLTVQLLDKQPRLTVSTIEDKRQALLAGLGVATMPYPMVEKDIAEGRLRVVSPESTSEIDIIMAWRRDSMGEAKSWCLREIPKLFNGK
Test: EMSA
Settings: EMSA: Roche DIG Gel Shift Kit 2nd Gen (buffer, salt and pH not stated), 30 min at 30 C, YhaJ 0-1 uM, DIG probe diluted to 0.4 ng/ul, 6% DNA retardation gel

| Sequence | binding |
| --- | --- |
| CCTGCTGTAGAACTGCAATTTGCTCTATAAGCTGAATGTATGGACTTGTTGTATGTGAATTATTTTCCATATTCATAATAAATAATCTCCGCATGCTTTAATATTTTAAGCTATTAGCGACCTTATCAGGAAGGACCAACAATTAATCAAATGATATAAATTATGTGAGATAACGTTTATCTATCAAATTAGGACACATCTATTTCATCAAACAACCACCTTAAAATG (double strand) [LEE1 P2 promoter probe] | no binding |
| TCGCTCAATATTTTGTAGGGCTTATTATTTTTTTCCGAGCCGCATCAAGGCGATATGCGGTCTACGTTTTTGCAGGCGAGTTATTAGAATAAAGAAATGATACGCGCGAGGTCAGAGAAAATCTTCACAATCAAGACTTTGAAATAACGGAGATGGATAAGAATTTTCTACTAAATTAATCGCAAGAGAATATTCACTCTCTATTTGCGGCAGATCACAAAAAAAAGGTGCACATTTGTGCACCCAAGGATGAAAGCTGACAGCAATGTCAGCCGCAGACCACTTTAATGGCCAGTCCGC (double strand) [pyhaO promoter probe] | binds |
